From paper PMC12572689, “Characterization of the Specific Binding Between Aptamers and Cytochrome c With Pressure‐Assisted Capillary Electrophoresis Frontal Analysis” come the findings set out here.

The target in series [1] is T1, cytochrome c (Equus caballus (equine heart), UniProt P00004 2-105). The series is described as follows: PACE-FA; specific binding fit; n=1.22; lambda 7.11e3 M-1; 10 mM NH4OAc pH 6.8 (fluorescence: 2.0 uM cyt c, 2.0-14.0 uM aptamer, 30 min); PACE-FA: NH4OAc pH 6.8, HPC-coated capillary; temperature not stated. The note with it: protein: commercial; tags: none.
T1 sequence (P00004 2-105): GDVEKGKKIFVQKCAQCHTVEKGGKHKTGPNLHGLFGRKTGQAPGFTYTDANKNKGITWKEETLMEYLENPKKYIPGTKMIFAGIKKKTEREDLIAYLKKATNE
For series [2], the target named is T1, cytochrome c. The series is described as follows: fluorescence titration; cyt c emission at 292 nm; Benesi-Hildebrand; 10 mM NH4OAc pH 6.8 (fluorescence: 2.0 uM cyt c, 2.0-14.0 uM aptamer, 30 min); PACE-FA: NH4OAc pH 6.8, HPC-coated capillary; temperature not stated. The note with it: protein: commercial, tags: none.
For series [3], the target named is T1, cytochrome c. The experiment in a line: PACE-FA; raw data, uncorrected; n=1.47; 10 mM NH4OAc pH 6.8 (fluorescence: 2.0 uM cyt c, 2.0-14.0 uM aptamer, 30 min); PACE-FA: NH4OAc pH 6.8, HPC-coated capillary; temperature not stated. The note with it: protein: commercial; tags: none.
Series [4] concerns the target T1, cytochrome c. The experiment in a line: PACE-FA; mobility correction; n=1.30; 10 mM NH4OAc pH 6.8 (fluorescence: 2.0 uM cyt c, 2.0-14.0 uM aptamer, 30 min); PACE-FA: NH4OAc pH 6.8, HPC-coated capillary; temperature not stated. The note with it: protein: commercial; tags: none.
Series [5] deals with T1, cytochrome c. The series is described as follows: PACE-FA; mobility correction; n=1.85; 10 mM NH4OAc pH 6.8 (fluorescence: 2.0 uM cyt c, 2.0-14.0 uM aptamer, 30 min); PACE-FA: NH4OAc pH 6.8, HPC-coated capillary; temperature not stated. The note with it: protein: commercial; tags: none; multi-loop structure (as claimed in text).
Series [6] has as its target T1, cytochrome c. The experiment in a line: PACE-FA; specific binding fit; n=1.25; lambda 6.90e4 M-1; 10 mM NH4OAc pH 6.8 (fluorescence: 2.0 uM cyt c, 2.0-14.0 uM aptamer, 30 min); PACE-FA: NH4OAc pH 6.8, HPC-coated capillary; temperature not stated. The note with it: protein: commercial; tags: none; multi-loop structure (as claimed in text).
Series [7] concerns the target T1, cytochrome c. The experiment in a line: PACE-FA; raw data, uncorrected; n=2.05; 10 mM NH4OAc pH 6.8 (fluorescence: 2.0 uM cyt c, 2.0-14.0 uM aptamer, 30 min); PACE-FA: NH4OAc pH 6.8, HPC-coated capillary; temperature not stated. The note with it: protein: commercial; tags: none; multi-loop structure (as claimed in text).
Series [8] addresses T1, cytochrome c. The experiment in a line: PACE-FA; specific binding fit; n=0.84; lambda 2.83e4 M-1; 10 mM NH4OAc pH 6.8 (fluorescence: 2.0 uM cyt c, 2.0-14.0 uM aptamer, 30 min); PACE-FA: NH4OAc pH 6.8, HPC-coated capillary; temperature not stated. The note with it: protein: commercial; tags: none.
The target in series [9] is T1, cytochrome c. The series is described as follows: PACE-FA; mobility correction; n=1.10; 10 mM NH4OAc pH 6.8 (fluorescence: 2.0 uM cyt c, 2.0-14.0 uM aptamer, 30 min); PACE-FA: NH4OAc pH 6.8, HPC-coated capillary; temperature not stated. Conditions: protein: commercial; tags: none.
For series [10], the target named is T1, cytochrome c. The series is described as follows: PACE-FA; raw data, uncorrected; n=1.06; 10 mM NH4OAc pH 6.8 (fluorescence: 2.0 uM cyt c, 2.0-14.0 uM aptamer, 30 min); PACE-FA: NH4OAc pH 6.8, HPC-coated capillary; temperature not stated. Conditions: protein: commercial; tags: none.

B1: Apt61 (ssDNA)
DNA: AGTGTGAAATATCTAAACTAAATGTGGAGGGTGGGACGGGAAGAAGTTTATTTTTCACACT
For the molecule B1, the Ka was 712000 M⁻¹ in the series with cytochrome c [1], 625000 M⁻¹ in the series with cytochrome c [2], 1.06e+06 M⁻¹ with cytochrome c [3] and 643000 M⁻¹ in the series with cytochrome c [4].

B2: Apt76 (ssDNA)
DNA: ATCGATAAGCTTCCAGAGCCGTGTCTGGGGCCGACCGGCGCATTGGGTACGTTGTTGCCGTAGAATTCCTGCAGCC
Regarding B2, the Ka came out at 676000 M⁻¹ with cytochrome c [5], 868000 M⁻¹ in the series with cytochrome c [2] (multi-loop structure (as claimed in text)), 1.53e+06 M⁻¹ with cytochrome c [6] and 1.65e+06 M⁻¹ in the series with cytochrome c [7].
As to CCGTGTCTGGGGCCGACCGGCGCATTGGGTACGTTGTTGC (ssDNA) [Apt40], the Ka in the series with cytochrome c [8] was 840000 M⁻¹; with cytochrome c [2] it was 151000 M⁻¹; in the series with cytochrome c [9] it was 545000 M⁻¹; in the series with cytochrome c [10], 2.01e+06 M⁻¹.
